Blank lines part the entries; values can stand above or below the binder they belong to. Starred links: 1 amine or outer side, 2 acyl side, 3 side chain; linkers in the order of their positions; H or OH if unused. Positions of bridges follow the written chain, without caps; N, C: chain ends. Non-standard residues stand in square brackets, D forms with d. Yde = (2S)-2-amino-3-[4-[2-(dimethylamino)ethoxy]phenyl]propanoic acid, CN(C)CCOc1ccc(C[C@H](N[*:1])C(=O)[*:2])cc1; Trp(7-Me) = Cc1cccc2c(C[C@H](N)C(=O)O)c[nH]c12; αMeLys(Me2) = CN(C)CCCC[C@](C)(N)C(=O)O; 2Nal = N[C@@H](Cc1ccc2ccccc2c1)C(=O)O; AEF = NCCOc1ccc(C[C@H](N)C(=O)O)cc1; 3Pal = N[C@@H](Cc1cccnc1)C(=O)O; αMeL = CC(C)C[C@](C)(N)C(=O)O; Thp = NC1(C(=O)O)CCOCC1; Aib = CC(C)(N)C(=O)O; Ahx = NCCCCCC(=O)O; Ava = NCCCCC(=O)O; βAla = NCCC(=O)O; Sar = CNCC(=O)O
Biological target: T1, IL-23 receptor on the surface of HEK-Blue IL-23 cells (UniProt Q5VWK5 24-629, limits assumed)
T1 sequence (looked up): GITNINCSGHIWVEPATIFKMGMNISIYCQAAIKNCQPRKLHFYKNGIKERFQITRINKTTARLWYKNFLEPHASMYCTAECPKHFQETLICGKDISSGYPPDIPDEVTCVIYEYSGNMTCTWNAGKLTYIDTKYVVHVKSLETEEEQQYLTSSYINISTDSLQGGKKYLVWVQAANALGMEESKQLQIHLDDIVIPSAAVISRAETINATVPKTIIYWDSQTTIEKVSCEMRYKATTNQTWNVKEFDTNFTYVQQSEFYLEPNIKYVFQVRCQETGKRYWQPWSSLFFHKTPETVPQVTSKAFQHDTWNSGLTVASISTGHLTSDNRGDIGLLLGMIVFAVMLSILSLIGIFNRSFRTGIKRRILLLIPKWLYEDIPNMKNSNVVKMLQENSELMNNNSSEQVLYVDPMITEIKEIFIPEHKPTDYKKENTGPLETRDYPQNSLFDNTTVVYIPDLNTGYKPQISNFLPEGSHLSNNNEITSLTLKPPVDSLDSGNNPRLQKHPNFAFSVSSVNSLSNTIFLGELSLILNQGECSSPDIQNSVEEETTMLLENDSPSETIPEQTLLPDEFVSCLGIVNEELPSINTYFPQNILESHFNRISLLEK
Experiment: cell-based or functional assay

pSTAT3 (nM): 0.6 nM
B1: Compound of SEQ ID NO: 48 (peptide)
peptide: [Ava]CNT[Trp(7-Me)]K(Ac)C[Yde][2Nal][Aib]ENH[βAla]-NH2
modifications: lactam N-11; disulfide 2-7
SMILES: CC(=O)NCCCC[C@@H]1NC(=O)[C@H](Cc2c[nH]c3c(C)cccc23)NC(=O)[C@H]([C@@H](C)O)NC(=O)[C@H](CC(N)=O)NC(=O)[C@@H]2CSSC[C@H](NC1=O)C(=O)N[C@@H](Cc1ccc(OCCN(C)C)cc1)C(=O)N[C@@H](Cc1ccc3ccccc3c1)C(=O)NC(C)(C)C(=O)N[C@H](C(=O)N[C@@H](CC(N)=O)C(=O)N[C@@H](Cc1c[nH]cn1)C(=O)NCCC(N)=O)CCC(=O)NCCCCC(=O)N2

pSTAT3 (nM): 1.79 nM
B2: Compound of SEQ ID NO: 49 (peptide)
peptide: [Ava]CNT[Trp(7-Me)]K(Ac)C[Yde][2Nal][Thp]ENH[βAla]-NH2
modifications: lactam N-11; disulfide 2-7
SMILES: CC(=O)NCCCC[C@@H]1NC(=O)[C@H](Cc2c[nH]c3c(C)cccc23)NC(=O)[C@H]([C@@H](C)O)NC(=O)[C@H](CC(N)=O)NC(=O)[C@@H]2CSSC[C@H](NC1=O)C(=O)N[C@@H](Cc1ccc(OCCN(C)C)cc1)C(=O)N[C@@H](Cc1ccc3ccccc3c1)C(=O)NC1(CCOCC1)C(=O)N[C@H](C(=O)N[C@@H](CC(N)=O)C(=O)N[C@@H](Cc1c[nH]cn1)C(=O)NCCC(N)=O)CCC(=O)NCCCCC(=O)N2

pSTAT3 (nM): 1.25 nM
B3: Compound of SEQ ID NO: 52 (peptide)
peptide: [Ava]CNT[Trp(7-Me)]QC[Yde][2Nal][Aib]ENH-NH2
modifications: lactam N-11; disulfide 2-7
SMILES: Cc1cccc2c(C[C@@H]3NC(=O)[C@H]([C@@H](C)O)NC(=O)[C@H](CC(N)=O)NC(=O)[C@@H]4CSSC[C@H](NC(=O)[C@H](CCC(N)=O)NC3=O)C(=O)N[C@@H](Cc3ccc(OCCN(C)C)cc3)C(=O)N[C@@H](Cc3ccc5ccccc5c3)C(=O)NC(C)(C)C(=O)N[C@H](C(=O)N[C@@H](CC(N)=O)C(=O)N[C@@H](Cc3c[nH]cn3)C(N)=O)CCC(=O)NCCCCC(=O)N4)c[nH]c12

pSTAT3 (nM): 2.59 nM
B4: Compound of SEQ ID NO: 54 (peptide)
peptide: [Ava]CNT[Trp(7-Me)]K(Ac)C[Yde][2Nal][αMeLys(Me2)]EN[dL]-NH2
modifications: lactam N-11; disulfide 2-7
SMILES: CC(=O)NCCCC[C@@H]1NC(=O)[C@H](Cc2c[nH]c3c(C)cccc23)NC(=O)[C@H]([C@@H](C)O)NC(=O)[C@H](CC(N)=O)NC(=O)[C@@H]2CSSC[C@H](NC1=O)C(=O)N[C@@H](Cc1ccc(OCCN(C)C)cc1)C(=O)N[C@@H](Cc1ccc3ccccc3c1)C(=O)N[C@@](C)(CCCCN(C)C)C(=O)N[C@H](C(=O)N[C@@H](CC(N)=O)C(=O)N[C@H](CC(C)C)C(N)=O)CCC(=O)NCCCCC(=O)N2

pSTAT3 (nM): 60.8 nM
B5: Compound of SEQ ID NO: 53 (peptide)
peptide: [Ahx]C[Ava]WQC[AEF][2Nal][Aib]DAG-NH2
modifications: lactam N-10; disulfide 2-6
SMILES: C[C@H](NC(=O)[C@@H]1CC(=O)NCCCCCC(=O)N[C@H]2CSSC[C@H](NC(=O)[C@H](CCC(N)=O)NC(=O)[C@H](Cc3c[nH]c4ccccc34)NC(=O)CCCCNC2=O)C(=O)N[C@@H](Cc2ccc(OCCN)cc2)C(=O)N[C@@H](Cc2ccc3ccccc3c2)C(=O)NC(C)(C)C(=O)N1)C(=O)NCC(N)=O

pSTAT3 (nM): 0.57 nM
B6: Compound of SEQ ID NO: 47 (peptide)
peptide: [Ava]CNT[Trp(7-Me)]K(Ac)C[Yde][2Nal][αMeL]ENH[Sar]-NH2
modifications: lactam N-11; disulfide 2-7
SMILES: CC(=O)NCCCC[C@@H]1NC(=O)[C@H](Cc2c[nH]c3c(C)cccc23)NC(=O)[C@H]([C@@H](C)O)NC(=O)[C@H](CC(N)=O)NC(=O)[C@@H]2CSSC[C@H](NC1=O)C(=O)N[C@@H](Cc1ccc(OCCN(C)C)cc1)C(=O)N[C@@H](Cc1ccc3ccccc3c1)C(=O)N[C@@](C)(CC(C)C)C(=O)N[C@H](C(=O)N[C@@H](CC(N)=O)C(=O)N[C@@H](Cc1c[nH]cn1)C(=O)N(C)CC(N)=O)CCC(=O)NCCCCC(=O)N2

pSTAT3 (nM): 0.95 nM
B7: Compound of SEQ ID NO: 55 (peptide)
peptide: [Ava]CNT[Trp(7-Me)]K(Ac)C[Yde][2Nal][Thp]ENHX-NH2
modifications: lactam N-11; disulfide 2-7; not fully specified (residue 14); printed as Apt(§1)-C(@2)-N-T-Wim-K[Ac]-C(@2)-Yde-Nal-Thp-E(§1)-N—H-Mep-NH2

pSTAT3 (nM): 0.84 nM
B8: Compound of SEQ ID NO: 46 (peptide)
peptide: [Ava]CNT[Trp(7-Me)]K(Ac)C[Yde][2Nal][Thp]ENH[Sar]-NH2
modifications: lactam N-11; disulfide 2-7
SMILES: CC(=O)NCCCC[C@@H]1NC(=O)[C@H](Cc2c[nH]c3c(C)cccc23)NC(=O)[C@H]([C@@H](C)O)NC(=O)[C@H](CC(N)=O)NC(=O)[C@@H]2CSSC[C@H](NC1=O)C(=O)N[C@@H](Cc1ccc(OCCN(C)C)cc1)C(=O)N[C@@H](Cc1ccc3ccccc3c1)C(=O)NC1(CCOCC1)C(=O)N[C@H](C(=O)N[C@@H](CC(N)=O)C(=O)N[C@@H](Cc1c[nH]cn1)C(=O)N(C)CC(N)=O)CCC(=O)NCCCCC(=O)N2

pSTAT3 (nM): 0.16 nM
B9: Compound of SEQ ID NO: 56 (peptide)
peptide: [Ava]CNT[Trp(7-Me)]K(Ac)C[Yde][2Nal][Thp]ES[3Pal][Sar]-NH2
modifications: lactam N-11; disulfide 2-7
SMILES: CC(=O)NCCCC[C@@H]1NC(=O)[C@H](Cc2c[nH]c3c(C)cccc23)NC(=O)[C@H]([C@@H](C)O)NC(=O)[C@H](CC(N)=O)NC(=O)[C@@H]2CSSC[C@H](NC1=O)C(=O)N[C@@H](Cc1ccc(OCCN(C)C)cc1)C(=O)N[C@@H](Cc1ccc3ccccc3c1)C(=O)NC1(CCOCC1)C(=O)N[C@H](C(=O)N[C@@H](CO)C(=O)N[C@@H](Cc1cccnc1)C(=O)N(C)CC(N)=O)CCC(=O)NCCCCC(=O)N2

pSTAT3 (nM): 0.05 nM
B10: Compound of SEQ ID NO: 51 (peptide)
peptide: [Ava]CNT[Trp(7-Me)]K(Ac)C[Yde][2Nal][Thp]EN[3Pal]-NH2
modifications: lactam N-11; disulfide 2-7
SMILES: CC(=O)NCCCC[C@@H]1NC(=O)[C@H](Cc2c[nH]c3c(C)cccc23)NC(=O)[C@H]([C@@H](C)O)NC(=O)[C@H](CC(N)=O)NC(=O)[C@@H]2CSSC[C@H](NC1=O)C(=O)N[C@@H](Cc1ccc(OCCN(C)C)cc1)C(=O)N[C@@H](Cc1ccc3ccccc3c1)C(=O)NC1(CCOCC1)C(=O)N[C@H](C(=O)N[C@@H](CC(N)=O)C(=O)N[C@@H](Cc1cccnc1)C(N)=O)CCC(=O)NCCCCC(=O)N2

pSTAT3 (nM): 9.66 nM
Binder: XCNTWQCXXXENN (Apt(§1)-C(@2)-N-T-W-Q-C(@2)-Yae-Nal-Aib-E(§1)-N-N-NH2) [Compound of SEQ ID NO: 5]

pSTAT3 (nM): 0.98 nM
B11: Compound of SEQ ID NO: 50 (peptide)
peptide: [Ava]CNT[Trp(7-Me)]K(Ac)C[Yde][2Nal][αMeL]ENH[βAla]-NH2
modifications: lactam N-11; disulfide 2-7
SMILES: CC(=O)NCCCC[C@@H]1NC(=O)[C@H](Cc2c[nH]c3c(C)cccc23)NC(=O)[C@H]([C@@H](C)O)NC(=O)[C@H](CC(N)=O)NC(=O)[C@@H]2CSSC[C@H](NC1=O)C(=O)N[C@@H](Cc1ccc(OCCN(C)C)cc1)C(=O)N[C@@H](Cc1ccc3ccccc3c1)C(=O)N[C@@](C)(CC(C)C)C(=O)N[C@H](C(=O)N[C@@H](CC(N)=O)C(=O)N[C@@H](Cc1c[nH]cn1)C(=O)NCCC(N)=O)CCC(=O)NCCCCC(=O)N2

Reference: patent publication US20260258084A1, “New Peptides as Selective IL-23 Receptor Antagonists” (Sanofi, priority 2022, published 2026)
